Assay results published in patent publication US20210054078A1.
Positions count from the first letter of the chain named.

B1: 1G1.D8 scFv phage clone (scFv, part only; not given: scFv linker, part only)
scFv, part: QVQLVESGGGLVQPGRSLRLSCAASGFTFDDYAMHWVRQAPGKGLEWVSGISWNSGSIGYADSVKGRFTISRDNAKNSLYLQMNSLRAEDTAVYYCAKPRDISSWLGMDVWGQGTTVTVSSDIQMTQSPSSVSASVGDRVTITCRASQDISSWLAWYQQKPGKAPKLLIYAASSLQSGVPSRFSGSGSGTDFTLTISSLQPEDSATYYCQQTTNFPYTFGQGTKLEIKR
B2: 1G1 scFv phage clone (scFv, V domains shown, part only)
VH: QVQLVESGGGLVQPGRSLRLSCAASGFTFDDYAMHWVRQAPGKGLEWVSGISWNSGSIGYADSVKGRFTISRDNAKNSLYLQMNSLRAEDTAVYYCAKPRDISSWLGMDVWGQGTTVTVSS
VL: DIQMTQSPSSVSASVGDRVTITCRASQDISSWLAWYQQKPGKAPKLLIYAASSLQSGVPSRFSGSGSGTDFTLTISSLQPEDSATYYCQQTNNFPYTFGQGTKLEIKR
modifications: scFv linker not given; phage display
B3: 1G1.E12 scFv phage clone (scFv, V domains shown, part only)
VH: B2 VH
VL: B2 VL with N92V, N93T
modifications: scFv linker not given
B4: ME4 scFv phage clone (scFv, V domains shown, part only)
VH: QVQLVESGAEVKKPGSSVKVSCKASGGTFNNYAVSWVRQAPGQGLEWMGRIIPILGIANYAQTFQGRVTITADKSTTTAYMELSSLRSEDTAVYYCARSYSGYAEGAFDIWGQGTMVTVSS
VL: QFVLTQPPSVSGAPGQRVTISCTGSSSNIGAGYDVHWYQQLPGTAPKVLIYGNSDRPSGVPDRFSGSKSGTSASLAITGLQGEDKATYYCQSYDSRLSGPVFGTGTKVTVLG
modifications: scFv linker not given; phage display
B5: ME4.B12 scFv phage clone (scFv, V domains shown, part only)
VH: B4 VH with Y100S, S101F, A104S, E105V
VL: B4 VL
modifications: scFv linker not given
B6: ME4.A12 scFv phage clone (scFv, V domains shown, part only)
VH: B4 VH with Y100H, S101W, E105H
VL: B4 VL
modifications: scFv linker not given
B7: ME4.A2 scFv phage clone (scFv, V domains shown, part only)
VH: B4 VH with Y100S, S101R, E105H
VL: B4 VL
modifications: scFv linker not given
B8: ME4.A11 scFv phage clone (scFv, V domains shown, part only)
VH: B4 VH with Y100R, S101G, E105H
VL: B4 VL
modifications: scFv linker not given
B9: ME4.B10 scFv phage clone (scFv, V domains shown, part only)
VH: B4 VH with Y100A, S101R, E105H
VL: B4 VL
modifications: scFv linker not given

How the values were obtained:
[1] = molecular target: human PD-L1 (soluble protein of the kinetic measurements) (human) (UniProt Q9NZQ7); experiment: dissociation rate constant of scFv phage clone, method not named
human PD-L1 (soluble protein of the kinetic measurements) (human), sequence (Q9NZQ7 19-238 limits assumed): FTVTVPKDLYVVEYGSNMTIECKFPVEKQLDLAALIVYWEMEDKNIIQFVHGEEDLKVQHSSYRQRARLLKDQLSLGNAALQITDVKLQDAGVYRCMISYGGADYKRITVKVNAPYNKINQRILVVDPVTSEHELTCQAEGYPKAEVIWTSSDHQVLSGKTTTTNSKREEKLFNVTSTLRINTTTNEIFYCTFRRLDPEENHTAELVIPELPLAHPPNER

[2] = molecular target: Human PD-L1-HisTag (#10084-H08H, Sino Biological Inc.) (human) (UniProt Q9NZQ7); experiment: ELISA, scFv phage supernatant on coated His-tag PD-L1, anti-M13-HRP
Human PD-L1-HisTag (#10084-H08H, Sino Biological Inc.) (human), sequence (Q9NZQ7 19-238 limits assumed): as above

[3] = molecular target: Mouse PD-L1-HisTag (#50010-M08H, Sino Biological Inc.) (mouse) (UniProt Q9EP73); experiment: as above
Mouse PD-L1-HisTag (#50010-M08H, Sino Biological Inc.) (mouse), sequence (Q9EP73 19-238 limits assumed, stated change not applied): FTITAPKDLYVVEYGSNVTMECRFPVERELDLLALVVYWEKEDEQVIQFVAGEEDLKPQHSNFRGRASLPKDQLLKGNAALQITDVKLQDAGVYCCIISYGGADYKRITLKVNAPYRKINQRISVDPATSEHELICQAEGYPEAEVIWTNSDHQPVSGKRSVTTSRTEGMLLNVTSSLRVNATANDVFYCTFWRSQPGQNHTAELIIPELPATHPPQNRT

[4] = molecular target: human PD-L1 on hPD-L1/CHO-K1 overexpressing cells (human) (UniProt Q9NZQ7); experiment: flow cytometry, scFv phage supernatant on hPD-L1/CHO-K1 cells
human PD-L1 on hPD-L1/CHO-K1 overexpressing cells (human), sequence (Q9NZQ7 19-290): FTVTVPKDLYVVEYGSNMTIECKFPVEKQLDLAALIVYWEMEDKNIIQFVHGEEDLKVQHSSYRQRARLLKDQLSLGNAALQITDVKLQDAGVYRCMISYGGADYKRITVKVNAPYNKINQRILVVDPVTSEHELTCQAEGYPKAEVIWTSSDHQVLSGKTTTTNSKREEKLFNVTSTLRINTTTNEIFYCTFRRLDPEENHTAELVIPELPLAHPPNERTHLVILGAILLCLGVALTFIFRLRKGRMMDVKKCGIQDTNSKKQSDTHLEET

[5] = molecular target: mouse PD-L1 (soluble protein of the kinetic measurements) (mouse) (UniProt Q9EP73); experiment: dissociation rate constant of scFv phage clone, method not named
mouse PD-L1 (soluble protein of the kinetic measurements) (mouse), sequence (Q9EP73 19-238 limits assumed): as the sequence (Q9EP73 19-238 limits assumed, stated change not applied) above

| Binder | koff [1] [s⁻¹] | koff [5] [s⁻¹] | further results |
| --- | --- | --- | --- |
| B1 | 0.000242 |  |  |
| B2 | 0.000152 |  | OD450-630 [2]: 1.38; OD450-630 [3]: 0.35; % Gated in M1 [4]: 99.4%; Geo Mean in M1 [4]: 184; Geo Mean, all events [4]: 181; Mean in M1 [4]: 248; Mean, all events [4]: 246 |
| B3 | 0.000268 |  |  |
| B4 | 0.000186 | 0.000374 | OD450-630 [2]: 1.66; OD450-630 [3]: 1.44 |
| B5 | 0.000177 | 0.000753 |  |
| B6 | < 1e-07 | 0.00101 |  |
| B7 | 0.000183 | 0.000852 |  |
| B8 | 7.86e-05 | 0.000486 |  |
| B9 | 0.00016 | 0.000467 |  |
